Laboratory results reported in patent US20190194718, “GENERATION OF TAGGED DNA FRAGMENTS” (QIAGEN GMBH, published 2019).

Target: BPHIN 1 (wild-type HIV-1 integrase) (Human immunodeficiency virus 1, UniProt P04585 P04585:1148-1435)
Assay: pGL2 fragments 150-500 bp; 5 mM MnCl2, 37 C
Details: tags: BioProducts MD, LLC; chain copies: 4; partially double-stranded

B1: IN adaptor 7 (dsDNA)
DNA 1: AATGATACGGCGACCACCGAGATCTACACTCTTTCCCTACACGACGCTCTTCCGATCTAGCAGT
DNA 2: ACTGCT
- binding result: binds
